Target: T1, human-derived IL-6Rα protein (human, UniProt P08887 20-365, limits assumed)
T1 construct: Described only as 'soluble human IL-6Rα protein'; also called h-IL-6Rα; soluble human IL-6Rα protein
T1 sequence (looked up): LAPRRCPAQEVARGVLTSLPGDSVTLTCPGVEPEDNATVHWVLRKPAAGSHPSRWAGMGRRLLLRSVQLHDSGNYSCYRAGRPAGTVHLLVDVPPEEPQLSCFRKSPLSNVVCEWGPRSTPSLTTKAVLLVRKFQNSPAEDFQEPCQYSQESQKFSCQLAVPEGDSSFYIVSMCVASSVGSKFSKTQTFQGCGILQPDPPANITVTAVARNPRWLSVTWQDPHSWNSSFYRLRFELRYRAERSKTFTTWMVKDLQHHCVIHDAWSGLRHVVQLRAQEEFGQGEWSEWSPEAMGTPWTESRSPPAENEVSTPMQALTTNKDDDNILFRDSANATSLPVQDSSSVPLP
Experiment: SPR, h-IL-6Rα immobilized on a CM5 chip, 2S3-3D as analyte at 250, 125, 62.5, 31.2 and 15.6 nM
Method: The binding kinetics experiments for detecting antigen-antibody were carried out by Biocare Molecular Biological Interaction Platform. […] The binding time was set at 180 s/dissociation time at 200 s. The binding and dissociation of antigen and antibody were observed, and the data were analyzed by the corresponding analysis software.

B1: nanobody 2S3-3D (VHH)
VHH: QLQLVESGGGLVRPGGSLRLSCTIHGVTLDWYAVGWFRQAPGKEREGVSCISSSDGSTYYADSVKGRFTISRDNVKNTMYLQMNSLKPEDTAVYYCAMVFTTAQAMGVPFHDFEYDYWGPGTQVTVSS
notes: Alpaca-derived VHH expressed from pTT5 in 293F cells; also called anti-h-IL-6Rα nanobody; the nanobody
  Kd: 6.33 nM

Source: patent US20240343816A1 (INSTITUTE OF HEALTH AND MEDICINE HEFEI COMPREHENSIVE …, published 2024)
